The test deals with T1, Fc-mUmod, fusion protein of the mouse Umod protein (positions 1-616 of SEQ ID NO: 8) and the Fc domain of … (mouse; human, UniProt Q91X17 25-616).
T1 construct: Secreted from HEK293T cells, purified on protein A and immobilized on a 96-well plate; Positions 1-616 are the cloned range and start at the initiator Met; also called uromodulin; not shown: Fc domain of human IgG1
Put plainly: whole bacterial cells on plate-immobilized Fc-mUmod; bound cells counted by 16S rRNA real-time PCR, hIgG background subtracted. As to the method:
Next, the Fc-mUmod protein and hIgG as a control Fc protein were respectively diluted with PBS so as to result in a concentration of 5 μg/ml, and the resultants were applied to a 96-well plate (50 μl per well) and immobilized at 4° C. overnight. Each well was washed three times with 200 μl of PBS. Then, a 1% BSA/PBS solution (200 μl) was applied thereto for blocking at room temperature for 2 hours. Then, the blocking solution was removed. Thereafter, bacterial cells of each test lactic acid bacterium, which had been suspended in PBS so as to result in a concentration of 10⁶ cells/50 μl, were applied thereto (50 μl per well) and incubated at room temperature for 2 hours. Each well was washed five times with 200 μl of PBS and then PBS was completely removed.
DNA was extracted from bacterial cells bound to each plate using NucleoSpin™ Tissue (Takara) in accordance with the provided protocol. Real-time PCR was performed using the extracted DNA as a template and universal primers targeting the 16S rRNA gene (F: 5′-[…]-3′ (SEQ ID NO: 12), R: 5′-[…]-3′ (SEQ ID NO: 13)). The number of bacterial cells bound to Fc-mUmod and the number of bacterial cells bound to hIgG were quantitatively determined in accordance with the protocol provided with SYBR™ Premix Ex Taq™ II (Tli RNaseH Plus) (Takara).
(In qPCR the cycle at which signal appears reflects the starting amount.)

T1 sequence (Q91X17 25-616): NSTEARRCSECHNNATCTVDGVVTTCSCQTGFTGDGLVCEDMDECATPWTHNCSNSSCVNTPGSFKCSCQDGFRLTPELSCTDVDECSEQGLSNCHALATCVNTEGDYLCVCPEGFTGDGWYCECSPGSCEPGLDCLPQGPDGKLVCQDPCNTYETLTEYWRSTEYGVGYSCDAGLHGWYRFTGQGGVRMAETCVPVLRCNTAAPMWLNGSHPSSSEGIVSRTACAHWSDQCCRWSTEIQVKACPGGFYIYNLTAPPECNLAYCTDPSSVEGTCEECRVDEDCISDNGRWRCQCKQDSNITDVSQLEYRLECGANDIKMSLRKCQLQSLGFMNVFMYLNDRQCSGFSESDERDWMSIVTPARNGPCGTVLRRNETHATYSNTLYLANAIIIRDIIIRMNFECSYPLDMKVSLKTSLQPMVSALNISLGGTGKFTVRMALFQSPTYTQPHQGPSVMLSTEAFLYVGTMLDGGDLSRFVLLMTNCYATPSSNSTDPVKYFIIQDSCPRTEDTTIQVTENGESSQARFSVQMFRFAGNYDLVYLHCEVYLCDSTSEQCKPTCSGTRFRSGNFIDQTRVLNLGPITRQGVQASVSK

B1: S-layer protein A (SlpA protein) of the Lactobacillus acidophilus strain L-92 (other)
chain: AVSTVSAATTINASSSAINTNTNAKYDVDVTPSVSAVAANTANNTPAIAGNLTGTISASYNGKTYTANLKADTENATITAAGSTTAVKPAELAAGVAYTVTVNDVSFNFGSENAGKTVTLGSANSNVKFTGTNSDNQTETNVSTLKVKLDQNGVASLTNVSIANVYAINTTDNSNVNFYDVTSGATVTNGAVSVNADNQGQVNVANVVAAINSKYFAAQYADKKLNTRTANTEDAIKAALKDQKIDVNSVGYFKAPHTFTVNVKATSNTNGKSATLPVVVTVPNVAEPTVASVSKRIMHNAYYYDKDAKRVGTDSVKRYNSVSVLPNTTTINGKTYYQVVENGKAVDKYINAANIDGTKRTLKHNAYVYASSKKRANKVVLKKGEVVTTYGASYTFKNGQKYYKIGDNTDKTYVKVANFR
notes: In the assays SlpA stood on the surface of whole L-92 bacterial cells, not as an isolated protein; also called surface layer protein (SlpA)
As for B1, the binding result was “binds”.
